Measurements as given in patent US20030114402A1, “Modulators of DNA cytosine-5 methyltransferase and methods for use thereof” (The Regents of the University of California, priority 1997, published 2003).

Legend:
[1] = Jones, 1996; cited from earlier work
[2] = Jones, 1996; cited from earlier work; remark: listed apart in the source
[3] = target: T1, DCMTase (Mus musculus, UniProt P13864); test: Steady-state kinetic assay: initial velocity, substrate inhibition, DNA length; assay type: biochemical; conditions: concentrations up to 30 times Km^AdoMet
T1 construct: DCMTase was purified from mouse erythroleukemia cells as previously described; endogenous in cells; host or cells: mouse erythroleukemia (MEL) cells; enzyme purified from them
Description: After preincubation at room temperature for up to 10 minutes, reactions were initiated by the addition of poly(dI.dC:dI.dC) and, if indicated, inhibitor DNA or reaction products. […] Single-stranded DNA was heated to 90° C. and quick cooled on ice, prior to initiation of the reaction. Freeze-thawed DNA produced equivalent results. Incubations were at 37° C. for 60 minutes. The poly(dI.dC:dI.dC) concentrations were 2.0, 4.0, 8.0, 16, 35, 80, 160, 250, 400, 700 and 1000 pM. In some experiments, GC-box a/b was the substrate, using 100 nM DCMTase and DNA concentrations of 0.20, 0.40, 1.0, 2.0, 4.0, 8.0, 15, 23 and 35 μM. […] The radioactivity above the background, determined from assays without added poly(dI.dC:dI.dC), was converted to initial velocities and expressed as picomoles of methyl groups transferred to poly(dI.dC:dI.dC) per hour and plotted in double reciprocal form. […]
The Michaelis-Menton equation was used for studies into DNA length contributions to catalysis using KaliedaGraph 2.1.2 (Synergy Software). […] All steady-state data were analyzed using regression analyses of the appropriate initial velocity equation, listed below, using the Cleland programs (Cleland, W. W., 1979, Statistical analysis of enzyme kinetic data. Methods in Enzymol. 63:103-138). […]

[4] = target: T2, DNA cytosine-5 methyltransferase (DCMTase, Dnmt1) (Mus musculus, UniProt P13864 P13864:1-1620); test: EMSA; unit printed as mM (text indicates micromolar); free enzyme; conditions: tags: none; purified from mouse erythroleukemia (MEL) cells
Description: (§1) Gel mobility shift assays (GMSA) were performed with minor revisions to the original procedures (Fried, M., & Crothers, D. M., 1981, Equilibria and kinetics of the lac repressor-operator interactions by polyacrylamide gel electrophoresis, Nucleic Acids Res. 9:6505-6525; Garner, M. M. & Revzin, A., 1981, A gel electrophoresis method for quantifying the binding proteins to specific DNA regions: applications to components of the Escherichia coli lactose operon regulatory system, Nucleic Acids Res. 13:3047-3060). […]
(§2) Steady-state kinetic analyses of the DCMTase with the same 30 base-pair DNA substrates used in these studies indicate that Kₘ^DNA is 1000- to 50,000-fold higher (Flynn, J., et al., 1996, Murine DNA cytosine-C5 methyltransferase: Pre-steady- and steady-state kinetic analyses with regulatory DNA sequences, Biochemistry 35:7308-7315) than the DNA concentrations used to generate FIG. 2 and used by Reale et al, 1995, supra. […] Therefore, the stability of protein:DNA was determined by keeping the enzyme at a constant concentration (100 nM) and varying the amount of added DNA (Dubey & Roberts, 1992, supra).

[5] = target: T2, DNA cytosine-5 methyltransferase …; test: inhibition; Kii, uncompetitive with poly(dIdC:dIdC); 25 +/- 10 nM competitive with AdoMet; calculated KI 2.5 nM for DCMTase:poly(dIdC:dIdC) complex; Tris pH 8.0, 10 mM EDTA; conditions: tags: none; purified from mouse erythroleukemia (MEL) cells
[6] = target: T2, DNA cytosine-5 methyltransferase …; test: inhibition; Kis, noncompetitive with poly(dIdC:dIdC); Kii 6800 +/- 1200 nM; Tris pH 8.0, 37 C; conditions: tags: none; purified from mouse erythroleukemia (MEL) cells
Description: For these reasons it was presumed that single-stranded GC-box substrates could act as dead-end inhibitors of the reaction with poly(dI.dC:dI.dC). Dead-end inhibitors can provide a strong methodology for assessing whether a kinetic mechanism is random or ordered. Inhibition of poly(dI.dC:dI.dC) methylation by single-stranded GC-box b was studied at 15 μM AdoMet. The data were best fit by equation 5, a standard equation for noncompetitive inhibition, and generated the intersecting double reciprocal pattern shown in FIG. 13. The inhibition constants were determined to be Kᵢₛ=3.6+/−1.5 μM and Kᵢᵢ=6.8+/−1.2 μM (Table 4). Kᵢᵢ is the inhibition constant associated with an intercept effect and Kᵢₛ is the inhibition constant associated with a slope effect from families of double reciprocal plots.

[7] = target: T2, DNA cytosine-5 methyltransferase …; test: EMSA; unit printed as mM (text indicates micromolar); conditions: tags: none; purified from mouse erythroleukemia (MEL) cells
Description: Gel mobility shift assays (GMSA) were performed with minor revisions to the original procedures (Fried, M., & Crothers, D. M., 1981, Equilibria and kinetics of the lac repressor-operator interactions by polyacrylamide gel electrophoresis, Nucleic Acids Res. 9:6505-6525; Garner, M. M. & Revzin, A., 1981, A gel electrophoresis method for quantifying the binding proteins to specific DNA regions: applications to components of the Escherichia coli lactose operon regulatory system, Nucleic Acids Res. 13:3047-3060). All reactions were done in 100 mM Hepes pH 7.4, 10 mM EDTA, 10 mM DTT, […], 5% glycerol using the indicated P-labeled DNA and DCMTase concentrations, incubated on ice for 5 minutes and loaded on a 1×TBE(89 mM Tris-HCl pH 8.3, 89 mM boric acid, 2 mM EDTA), 6% polyacrylamide gel. Electrophoresis was done at 250 V, 9 mA for 2 hours at 4° C. and the dried gel was exposed to film overnight. The reaction conditions for buffer, temperature, incubation time, cofactor addition and gel composition have all been optimized. Only slightly better complex resolution was obtained under the listed conditions compared to a 10 minute incubation at 37° C. prior to gel loading at room temperature and containing either cofactor S-adenosyl-L-methionine, product S-adenosyl-L-homocysteine, or the AdoMet analog sinefungin. Hepes reaction buffer at pH 7.4 produced sharper banding than Tris-HCl at pH 8.0. […] Subsequent assays used a limiting and constant enzyme concentration with varying DNA concentrations.
as §2

[8] = target: T2, DNA cytosine-5 methyltransferase …; test: inhibition; substrate inhibition; KmDNA 0.31 +/- 0.13 µM; conditions: tags: none; purified from mouse erythroleukemia (MEL) cells; label: 32P (gel shift)
Description: To distinguish between this and alternative explanations, a short 30 base-pair DNA substrate was tested for inhibition at high concentrations. […] Initial velocity data for both substrates were fit to equation 1, which is a standard equation for analyzing substrate inhibition. Kₘ^DNA was determined to be 5.5+/−0.9 pM and 0.31+/−0.13 μM, and Kᵢ^DNA was 1010+/−170 pM and 43+/−22 μM for poly(dI.dC:dI.dC) and GC-box a/b, respectively (Table 3). In both cases, DNA concentrations greater than 20 times Kₘ^DNA caused substrate inhibition. AdoMet utilization was calculated to be less than 0.5%. Product inhibition by S-adenosyl homocysteine formation is therefore unlikely. AdoMet substrate inhibition was not observed at concentrations up to 30 times Kₘ^AdoMet. The substrate inhibition observed implicates a second DNA molecule binding to the enzyme and inhibiting catalysis.

[9] = target: T2, DNA cytosine-5 methyltransferase …; test: EMSA; unit printed as mM (text indicates micromolar); Hepes pH 7.4, 10 mM EDTA, on ice; conditions: tags: none; purified from mouse erythroleukemia (MEL) cells; label: 32P (gel shift)
Description: as §1, §2

T2 sequence (P13864 whole entry, one chain of several): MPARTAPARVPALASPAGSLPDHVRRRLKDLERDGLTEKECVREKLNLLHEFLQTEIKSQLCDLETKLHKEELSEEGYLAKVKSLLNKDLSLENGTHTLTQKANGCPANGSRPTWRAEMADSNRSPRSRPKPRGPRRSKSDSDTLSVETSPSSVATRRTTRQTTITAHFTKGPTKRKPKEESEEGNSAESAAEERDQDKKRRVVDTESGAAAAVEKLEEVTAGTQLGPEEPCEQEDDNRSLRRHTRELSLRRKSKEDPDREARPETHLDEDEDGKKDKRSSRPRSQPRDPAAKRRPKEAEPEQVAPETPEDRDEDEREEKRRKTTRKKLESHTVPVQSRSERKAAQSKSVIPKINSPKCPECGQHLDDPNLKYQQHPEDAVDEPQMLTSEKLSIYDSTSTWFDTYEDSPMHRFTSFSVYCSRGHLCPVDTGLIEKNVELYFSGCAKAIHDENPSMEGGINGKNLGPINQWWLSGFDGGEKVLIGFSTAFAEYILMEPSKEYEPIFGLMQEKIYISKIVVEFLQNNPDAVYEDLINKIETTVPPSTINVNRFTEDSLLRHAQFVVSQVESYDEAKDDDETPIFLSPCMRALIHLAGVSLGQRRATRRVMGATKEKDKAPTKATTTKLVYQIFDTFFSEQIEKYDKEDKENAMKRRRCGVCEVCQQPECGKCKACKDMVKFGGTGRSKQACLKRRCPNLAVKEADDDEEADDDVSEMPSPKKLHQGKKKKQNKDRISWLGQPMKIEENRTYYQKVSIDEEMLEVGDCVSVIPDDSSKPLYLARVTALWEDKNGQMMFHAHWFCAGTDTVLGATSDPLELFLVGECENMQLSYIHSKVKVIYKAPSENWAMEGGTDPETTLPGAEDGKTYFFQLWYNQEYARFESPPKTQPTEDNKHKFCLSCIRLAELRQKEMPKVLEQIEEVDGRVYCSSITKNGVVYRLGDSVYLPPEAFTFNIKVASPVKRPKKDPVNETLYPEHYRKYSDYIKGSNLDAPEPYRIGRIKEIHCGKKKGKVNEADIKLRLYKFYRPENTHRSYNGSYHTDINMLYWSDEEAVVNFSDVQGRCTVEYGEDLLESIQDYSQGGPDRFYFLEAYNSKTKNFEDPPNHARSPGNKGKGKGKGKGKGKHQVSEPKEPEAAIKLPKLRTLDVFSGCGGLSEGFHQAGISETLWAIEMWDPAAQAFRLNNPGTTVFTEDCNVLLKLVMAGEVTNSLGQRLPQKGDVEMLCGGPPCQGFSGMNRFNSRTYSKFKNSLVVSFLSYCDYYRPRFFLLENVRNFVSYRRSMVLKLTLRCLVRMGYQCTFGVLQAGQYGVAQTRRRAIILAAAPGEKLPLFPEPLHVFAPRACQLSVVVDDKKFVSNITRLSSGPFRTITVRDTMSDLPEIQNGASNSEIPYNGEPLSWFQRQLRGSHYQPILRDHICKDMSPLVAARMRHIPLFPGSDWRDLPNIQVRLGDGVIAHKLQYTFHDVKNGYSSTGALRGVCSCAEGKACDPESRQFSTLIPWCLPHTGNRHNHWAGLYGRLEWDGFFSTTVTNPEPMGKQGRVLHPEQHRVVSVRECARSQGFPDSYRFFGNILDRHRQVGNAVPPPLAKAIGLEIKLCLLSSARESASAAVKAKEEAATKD
T1 sequence (P13864 whole entry): as the sequence (P13864 whole entry, one chain of several) above

Q: Which stability in solution [1] does the source give for `Nc1ncn([C@H]2C[C@H](O)[C@@H](CO)O2)c(=O)n1` [5-Aza-deoxycytidine, 5-aza-2′-deoxycytidine] here?
A: Its stability in solution is “unstable in solution”.

Q: And the carcinogenicity and mutagenicity [2]?
A: Its carcinogenicity and mutagenicity is “may be carcinogenic as well as mutagenic”.

Q: With `C[S+](CC[C@H](N)C(=O)[O-])C[C@H]1O[C@@H](n2cnc3c(N)ncnc32)[C@H](O)[C@@H]1O` (stereo partly drawn) [AdoMet, S-adenosyl-L-methionine] as the molecule, how does the AdoMet substrate inhibition [3] read?
A: The AdoMet substrate inhibition was “not observed”.

B1: GC-box bMET (ssDNA)
DNA: CTGGATCCTTGCCCCGCCCCTTGAATTCCC
modifications: 5mC at position 15 (central CpG)
Q: With B1 as the molecule, how does the Kd [4] read?
A: The Kd was 880 nM.

Q: And the Ki [5]?
A: Its Ki is 20 nM.

B2: GC-box b (ssDNA)
DNA: B1 DNA
Q: With B2 as the molecule, how does the Ki [6] read?
A: The Ki was 3.6 µM.

Q: And the Kd [7]?
A: Its Kd is 1300 nM.

B3: GC-box a/b (dsDNA)
DNA 1: GGGAATTCAAGGGGCGGGGCAAGGATCCAG
DNA 2: B1 DNA
Q: Which Ki [8] does the source give for B3 here?
A: Its Ki is 43 µM.

Q: And the Kd [9]?
A: The Kd was 420 nM.
